Several values for one entry are separate records, joined by “and”; a condition that tells them apart may be missing. Equal values may be shown once. One block for each binder: values may come before it.
Legend:
Human hemoglobin (Hb) = Human hemoglobin (Hb) (human, UniProt P69905;P68871); assay: mass photometry
mass photometry = target: the molecule itself; assay: mass photometry
native MS = target: the molecule itself; assay: native MS

Human hemoglobin (Hb), sequence (P69905 whole entry, chain 1 of 2): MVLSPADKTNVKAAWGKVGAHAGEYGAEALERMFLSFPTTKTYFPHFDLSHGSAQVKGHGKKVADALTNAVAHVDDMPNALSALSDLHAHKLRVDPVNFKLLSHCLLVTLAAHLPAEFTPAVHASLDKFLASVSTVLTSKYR
Human hemoglobin (Hb), sequence (P68871 whole entry, chain 2 of 2): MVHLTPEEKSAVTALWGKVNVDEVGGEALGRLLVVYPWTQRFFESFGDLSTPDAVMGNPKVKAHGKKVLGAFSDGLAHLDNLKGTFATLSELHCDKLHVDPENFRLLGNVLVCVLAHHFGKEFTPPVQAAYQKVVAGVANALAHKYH

stoichiometry N (Human hemoglobin (Hb)): 2 Hb(αβ) dimers per Hp 1-1 dimer
B1: Haptoglobin 1-1 (Hp 1-1), dimer of two α1β units (complex)
chain 1: VDSGNDVTDIADDGCPKPPEIAHGYVEHSVRYQCKNYYKLRTEGDGVYTLNNEKQWINKAVGDKLPECEAVCGKPKNPANPVQ
chain 2: ILGGHLDAKGSFPWQAKMVSHHNLTTGATLINEQWLLTTAKNLFLNHSENATAKDIAPTLTLYVGKKQLVEIEKVVLHPNYSQVDIGLIKLKQKVSVNERVMPICLPSKDYAEVGRVGYVSGWGRNANFKFTDHLKYVMLPVADQDQCIRHYEGSTVPEKKTPKSPVGVQPILNEHTFCAGMSKYQEDTCYGDAGSAFAVHDLEEDTWYATGILSFDKSCAVAEYGVYVKVTSIQDWVQKTIAEN
modifications: N-glycans at Asn184, Asn207, Asn211 and Asn241
stoichiometry N (mass photometry): 2 Hp (αβ) units

stoichiometry N (Human hemoglobin (Hb)): 1 Hb(αβ) dimer per Hp (αβ) monomer
B2: Haptoglobin 2-2 (Hp 2-2), cyclic (α2)n(β)n oligomers (complex)
chain 1: VDSGNDVTDIADDGCPKPPEIAHGYVEHSVRYQCKNYYKLRTEGDGVYTLNDKKQWINKAVGDKLPECEADDGCPKPPEIAHGYVEHSVRYQCKNYYKLRTEGDGVYTLNNEKQWINKAVGDKLPECEAVCGKPKNPANPVQ
chain 2: B1 chain 2
modifications: N-glycans at Asn184, Asn207, Asn211 and Asn241
stoichiometry N (native MS): < 7 Hp (αβ) units

B3: Haptoglobin 2-1 (Hp 2-1) oligomers from the serum of a single heterozygote donor (complex)
chain 1: B1 chain 1
chain 2: B2 chain 1
chain 3: B1 chain 2
modifications: N-glycans at Asn184, Asn207, Asn211 and Asn241
stoichiometry N (native MS): 3 Hp (αβ) units and 4 Hp (αβ) units and 5 Hp (αβ) units

Source: publication PMC7355005 (Proceedings of the National Academy of Sciences of the …, 2020)
